Measured values reported in patent US20090209457A1, “TREATMENT OF ANTI-ERYTHROPOIETIN ANTIBODY-MEDIATED DISORDERS WITH SYNTHETIC PEPTIDE-BASED EPO RECEPTOR AGONISTS” (Affymax, Inc., priority 2008, published 2009).
Where two headings read alike, the source gives them in different places. Bridge positions count the residues as written; N and C are the ends. Square brackets hold non-standard residues; d marks the D form. Ends that are not written are not given here. 1Nal = N[C@@H](Cc1cccc2ccccc12)C(=O)O; Sar = CNCC(=O)O

Key:
[1] = system: human, bone marrow derived CD34+ cells; experiment: C/BFU-e assay (erythroid colonies); format: cell-based; conditions: 14 days, 90% of maximum colonies relative to EPO control
Protocol: EPO-R signaling stimulates the differentiation of bone marrow stem cells into proliferating red blood cell precursors. This assay measures the ability of test peptides to stimulate the proliferation and differentiation of red blood cell precursors from primary human bone marrow pluripotent stem cells.
For this assay, serial dilutions of test peptide are made in IMDM medium (Gibco) supplemented with 10% FBS (Hyclone). These serial dilutions, or positive control EPO peptide, are then added to methylcellulose to give a final volume of 1.5 mL. The methylcellulose and peptide mixture is then vortexed thoroughly. Aliquots (100,000 cells/mL) of human, bone marrow derived CD34+ cells (Poietics/Cambrex) are thawed. The thawed cells are gently added to 0.1 mL of 1 mg/ml DNAse (Stem Cells) in a 50 mL tube. Next, 40-50 mL IMDM medium is added gently to cells: the medium is added drop by drop along the side of the 50 mL tube for the first 10 mL, and then the remaining volume of medium is slowly dispensed along the side of the tube. The cells are then spun at 900 rpm for 20 min, and the media removed carefully by gentle aspiration. The cells are resuspended in 1 ml of IMDM medium and the cell density per mL is counted on hemacytometer slide (10 μL aliquot of cell suspension on slide, and cell density is the average count×10,000 cells/ml). The cells are then diluted in IMDM medium to a cell density of 15,000 cells/mL. A 100 μL of diluted cells is then added to each 1.5 mL methyl cellulose plus peptide sample (final cell concentration in assay media is 1000 cells/mL), and the mixture is vortexed. Allow the bubbles in the mixture to disappear, and then aspirate 1 mL using blunt-end needle. Add 0.25 mL aspirated mixture from each sample into each of 4 wells of a 24-well plate (Falcon brand). Incubate the plated mixtures at 37° C. under 5% CO2 in a humid incubator for 14 days. Score for the presence of erythroid colonies using a phase microscope (5×-10× objective, final magnification of 100×). The concentration of test peptide at which the number of formed colonies is 90% of maximum, relative to that observed with the EPO positive control, is recorded as the EC90 [See Table 2: C/BFU-e EC90].
For this assay, serial dilutions of test peptide are made in IMDM medium (Gibco) supplemented with 10% FBS (Hyclone). These serial dilutions, or positive control EPO peptide, are then added to methylcellulose to give a final volume of 1.5mL. The methylcellulose and peptide mixture is then vortexed thoroughly. […] The cells are resuspended in 1 ml of IMDM medium and the cell density per mL is counted on hemacytometer slide (10 μL aliquot of cell suspension on slide, and cell density is the average count×10,000 cells/ml). […]

[2] = target: T1, chimeric receptor comprising the extra-cellular portion of the human EPO receptor to the intra-cellular … (human, UniProt P19235 25-250; Q99062 651-836, limits assumed); experiment: cell-based or functional assay
T1 sequence (looked up): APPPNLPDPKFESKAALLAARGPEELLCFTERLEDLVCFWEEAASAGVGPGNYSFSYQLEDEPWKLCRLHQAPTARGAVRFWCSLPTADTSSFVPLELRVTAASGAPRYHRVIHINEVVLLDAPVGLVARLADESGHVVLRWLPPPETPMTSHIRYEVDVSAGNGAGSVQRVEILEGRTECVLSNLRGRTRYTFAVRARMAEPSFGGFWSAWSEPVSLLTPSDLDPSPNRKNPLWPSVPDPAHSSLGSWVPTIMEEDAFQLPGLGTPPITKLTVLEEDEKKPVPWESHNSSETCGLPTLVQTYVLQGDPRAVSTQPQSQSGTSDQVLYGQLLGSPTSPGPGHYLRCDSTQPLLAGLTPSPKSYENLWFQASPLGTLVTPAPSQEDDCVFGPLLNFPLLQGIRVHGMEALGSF

[3] = target: T2, human EPO-R on cells (BaF3/Gal4/Elk/EPOR cells; human bone marrow derived CD34+ cells) (human, UniProt P19235 25-508); experiment: cell-based or functional assay
T2 sequence (looked up): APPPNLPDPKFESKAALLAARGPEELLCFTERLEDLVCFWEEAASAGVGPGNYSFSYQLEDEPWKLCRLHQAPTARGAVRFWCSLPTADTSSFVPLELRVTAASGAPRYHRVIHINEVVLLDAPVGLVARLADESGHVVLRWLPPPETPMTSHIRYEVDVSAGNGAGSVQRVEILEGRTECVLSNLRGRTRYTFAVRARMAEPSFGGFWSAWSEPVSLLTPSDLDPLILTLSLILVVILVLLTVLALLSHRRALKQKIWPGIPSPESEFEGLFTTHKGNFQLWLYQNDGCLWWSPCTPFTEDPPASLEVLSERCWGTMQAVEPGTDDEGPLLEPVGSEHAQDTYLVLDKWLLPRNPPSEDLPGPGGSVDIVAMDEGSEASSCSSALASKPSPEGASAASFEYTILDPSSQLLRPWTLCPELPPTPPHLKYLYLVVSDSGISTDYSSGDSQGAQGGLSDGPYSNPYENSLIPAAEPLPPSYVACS

[4] = target: T3, Recombinant Human EPO R/Fc Chimera (R&D Systems, catalog number 963-ER) (human, UniProt P19235 25-250); experiment: radioligand competition: displacement of 125I-EPO from recombinant human EPO R/Fc, Protein-G Sepharose pull-down
T3 construct: extracellular domain; Bought reagent; also called recombinant EPOr extracellular domain fused to the Fc portion of human IgG1; recombinant erythropoietin receptor; not shown: Fc portion of human IgG1
T3 sequence (looked up): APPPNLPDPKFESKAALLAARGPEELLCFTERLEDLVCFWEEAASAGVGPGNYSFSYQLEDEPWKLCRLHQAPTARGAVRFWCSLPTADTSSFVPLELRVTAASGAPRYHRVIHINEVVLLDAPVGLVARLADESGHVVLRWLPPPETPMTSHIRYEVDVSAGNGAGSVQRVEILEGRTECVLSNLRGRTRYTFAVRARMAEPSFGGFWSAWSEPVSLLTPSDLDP

[5] = target: T1, chimeric receptor comprising the …; experiment: cell-based or functional assay; remark: listed apart in the source
[6] = target: T2, human EPO-R on cells …; experiment: cell-based or functional assay; remark: listed apart in the source
[7] = target: T4, recombinant EPO-R produced in Chinese Hamster Ovary cells as a fusion protein to a portion of the human … (human, UniProt P19235 25-250); experiment: competitive binding; the column head says only 'IC50 (pM)', the text ties Table 2 to the AQ bead proximity assay with tracer SEQ ID NO: 4 as competitor
T4 construct: In the assay it was held on protein A acceptor beads through antibody ab179
T4 sequence (looked up): T3 sequence (looked up)

## PEGylated peptide dimer of (AcG)GLYACHMGPIT(1-nal)VCQPLR(MeG) (SEQ ID NO: 3), EPO-R agonist [Peptide III] (Ac-GGLYACHMGPIT[1Nal]VCQPLR[Sar]; disulfide 6-15 (inferred); also: homodimer, C-termini joined to a lysine linker, PEGylated)
[1]
  EC90: 2.7 nM

## PEGylated peptide dimer of (AcG)GLYACHMGPIT(1-nal)VCQPLR(MeG) (SEQ ID NO: 3), EPO-R agonist [Peptide II] (Ac-GGLYACHMGPIT[1Nal]VCQPLR[Sar]; disulfide 6-15 (inferred); also: homodimer, C-termini joined to a lysine linker, PEGylated)
[1]
  EC90: 2.2 nM

## Peptide IV: PEGylated peptide dimer of (AcG)GLYACHMGPIT(1-nal)VCQPLRK (SEQ ID NO: 1), EPO-R agonist (Ac-GGLYACHMGPIT[1Nal]VCQPLRK; disulfide 6-15 (inferred); also: PEGylated peptide dimer)
[1]
  EC90: 6.2 nM

B1: Peptide I (SEQ ID NO: 2) (peptide)
peptide: Ac-GGLYACHMGPIT[1Nal]VCQPLR[Sar]K
modifications: disulfide 6-15 (inferred); also: K21 ε-amine joined to branched tertiary amide linker bearing PEG
[2]
  Reporter EC50 (pM): 195 pM
[3]
  Proliferation EC50 (pM): 165 pM
[4]
  IC50: 0.111 nM

B2: Peptide III (SEQ ID NO: 3) (peptide)
peptide: Ac-GGLYACHMGPIT[1Nal]VCQPLR[Sar]
modifications: disulfide 6-15 (inferred); also: C-termini joined to α- and ε-amines of a Lys linker carrying spacer and PEG
[5]
  Reporter EC50 (pM): 150 pM
[6]
  Proliferation EC50: 72 nM

B3: Peptide II (SEQ ID NO: 3) (peptide)
peptide: Ac-GGLYACHMGPIT[1Nal]VCQPLR[Sar]
modifications: disulfide 6-15 (inferred); also: C-termini joined to α- and ε-amines of a Lys linker carrying spacer and PEG
[7]
  IC50: 0.11 nM
